The values below come from paper PMC10648341, “Cloning and Functional Characterization of NADPH-Cytochrome P450 Reductases in Aconitum vilmorinianum” (Molecules, 2023).

The target in one assay is T1, CYP76AH1 (Salvia miltiorrhiza, UniProt S4UX02).
T1 construct: ORF in pESC-His, co-expressed with AvCPR1 (also AvCPR2 or SmCPR1) in miltiradiene-producing yeast YJ14; with NADPH--cytochrome P450 reductase 1 (Aconitum vilmorinianum)
T1 sequence (S4UX02 1-495): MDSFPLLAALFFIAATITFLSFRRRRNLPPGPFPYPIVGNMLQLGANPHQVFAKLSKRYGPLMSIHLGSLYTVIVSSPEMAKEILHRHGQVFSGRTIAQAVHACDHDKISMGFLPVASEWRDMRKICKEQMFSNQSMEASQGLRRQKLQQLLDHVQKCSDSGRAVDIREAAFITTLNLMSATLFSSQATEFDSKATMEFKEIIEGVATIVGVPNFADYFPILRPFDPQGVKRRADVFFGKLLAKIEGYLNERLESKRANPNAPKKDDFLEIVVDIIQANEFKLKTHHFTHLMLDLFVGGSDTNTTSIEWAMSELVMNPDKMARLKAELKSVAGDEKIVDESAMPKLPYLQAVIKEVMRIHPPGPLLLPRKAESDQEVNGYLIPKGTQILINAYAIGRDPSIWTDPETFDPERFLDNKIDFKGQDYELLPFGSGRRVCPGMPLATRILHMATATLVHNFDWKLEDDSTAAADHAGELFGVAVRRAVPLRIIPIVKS
Kind of assay: HPLC of yeast extracts, ferruginol formation. To be noted: miltiradiene made by host yeast YJ14; co-expressed AvCPR1, AvCPR2 or SmCPR1. In kind it is cell-based.

The next assay has as its target cytochrome c (UniProt P00004).

Sequence of cytochrome c (P00004 whole entry): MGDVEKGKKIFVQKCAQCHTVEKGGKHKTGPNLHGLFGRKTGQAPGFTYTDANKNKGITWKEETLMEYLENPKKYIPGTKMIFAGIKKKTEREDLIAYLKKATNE

For the compound `CC(C)c1cc2c(cc1O)[C@@]1(C)CCCC(C)(C)[C@@H]1CC2` [ferruginol], the “HPLC of yeast extracts, ferruginol formation” value on CYP76AH1 is on record as “transgenic strains co-expressing AvCPRs or SmCPR with CYP76AH1 produced ferruginol”.

In the case of “truncated AvCPR1 (NADPH-cytochrome P450 reductase 1 of Aconitum vilmorinianum, without the N-terminal membrane-anchoring region) (enzyme)”, the Km for cytochrome c: steady-state reduction of cytochrome c (0-200 μM) by 4 μg recombinant enzyme with 100 μmol/L NADPH, absorbance at 550 nm, 100 mM Tris-HCl, 0.1 mM EDTA, pH 7.4, 25 °C with cytochrome c was 344 μmol·L^−1.

On to “truncated AvCPR2 (NADPH-cytochrome P450 reductase 2 of Aconitum vilmorinianum, without the N-terminal membrane-anchoring region) (enzyme)”, for which the Km for cytochrome c: steady-state reduction of cytochrome c (0-200 μM) by 4 μg recombinant enzyme with 100 μmol/L NADPH, absorbance at 550 nm, 100 mM Tris-HCl, 0.1 mM EDTA, pH 7.4, 25 °C in the assay with cytochrome c was found to be 78.1 μmol·L^−1.
